In publication PMC3084279, “Critical Factors Governing the Difference in Antizyme-Binding Affinities between Human Ornithine Decarboxylase and Antizyme Inhibitor” (PLoS ONE, 2011):

Legend:
[1] = target: human ornithine decarboxylase M140K mutant (human) (UniProt P11926); assay: AUC; sedimentation velocity, 42,000 rpm; ODC or AZI fixed at 0.3 mg/mL with AZ at 0.015, 0.03, 0.06 or 0.09 mg/mL; data globally fitted with SEDPHAT to the A+B<->AB hetero-association model
[2] = target: human antizyme inhibitor, wild type (human) (UniProt O14977); assay: as above
human antizyme inhibitor, wild type (human), sequence (O14977 whole entry): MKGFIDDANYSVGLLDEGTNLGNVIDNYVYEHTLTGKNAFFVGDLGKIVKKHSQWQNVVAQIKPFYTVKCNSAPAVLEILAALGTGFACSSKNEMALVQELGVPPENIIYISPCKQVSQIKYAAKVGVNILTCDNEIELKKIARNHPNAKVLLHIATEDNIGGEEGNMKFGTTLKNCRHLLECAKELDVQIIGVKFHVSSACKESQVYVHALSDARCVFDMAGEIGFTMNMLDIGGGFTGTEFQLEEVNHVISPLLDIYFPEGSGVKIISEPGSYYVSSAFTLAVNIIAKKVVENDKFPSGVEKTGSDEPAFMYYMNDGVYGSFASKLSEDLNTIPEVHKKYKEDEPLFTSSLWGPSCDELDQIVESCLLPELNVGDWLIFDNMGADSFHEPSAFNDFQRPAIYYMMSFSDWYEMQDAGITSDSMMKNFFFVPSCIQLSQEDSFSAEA

[3] = target: human antizyme inhibitor K125N mutant (human) (UniProt O14977); assay: as above
human antizyme inhibitor K125N mutant (human), sequence (O14977 whole entry K125N): as the sequence (O14977 whole entry) above, with K125N counted along it

[4] = target: human ornithine decarboxylase N125K mutant (human) (UniProt P11926); assay: as above
[5] = target: human ornithine decarboxylase, wild type (human) (UniProt P11926); assay: as above
[6] = target: human antizyme inhibitor K125N/K140M double mutant (human) (UniProt O14977); assay: as above
human antizyme inhibitor K125N/K140M double mutant (human), sequence (O14977 whole entry K125N/K140M): as the sequence (O14977 whole entry) above, with K125N, K140M counted along it

[7] = target: human ornithine decarboxylase N125K/M140K double mutant (human) (UniProt P11926); assay: as above
[8] = target: human antizyme inhibitor K140M mutant (human) (UniProt O14977); assay: as above
human antizyme inhibitor K140M mutant (human), sequence (O14977 whole entry K140M): as the sequence (O14977 whole entry) above, with K140M counted along it

[9] = target: human ornithine decarboxylase N125K/M140K double mutant (human) (UniProt P11926)
[10] = target: human ornithine decarboxylase M140K mutant (human) (UniProt P11926)
[11] = target: human ornithine decarboxylase S135N mutant (human) (UniProt P11926)
[12] = target: human ornithine decarboxylase N125K mutant (human) (UniProt P11926)
[13] = target: human ornithine decarboxylase, wild type (human) (UniProt P11926)
[14] = target: human ornithine decarboxylase F133C mutant (human) (UniProt P11926)
[15] = target: human ornithine decarboxylase N125K/M140K double mutant (human) (UniProt P11926); remark: listed apart in the source
[16] = target: human ornithine decarboxylase N126V mutant (human) (UniProt P11926)
human antizyme (human) = human antizyme (human) (UniProt P54368)
[17] = target: the molecule itself; assay: AUC; sedimentation velocity, 42,000 rpm; continuous size distribution (SEDFIT) of ODC or AZI without AZ

Molecule: human antizyme (from UniProt P54368 1-228) (natural protein)
- Kd [1]: 140 nM
- Kd [2]: 20 nM
- Kd [3]: 160 nM
- Kd [4]: 100 nM
- Kd [5]: 210 nM
- Kd [6]: 180 nM
- Kd [7]: 20 nM
- Kd [8]: 110 nM
- residual enzyme activity of AZ-inhibited ODC N125K/M140K on rescue by high concentrations of AZI (AZ:ODC monomer ratio 4.0) [9]: 20%
- IC50,AZ: concentration of AZ required for 50% inhibition of ODC enzyme activity (ODC 20 µg/mL) [10]: 130 nM
- IC50,AZ: concentration of AZ required for 50% inhibition of ODC enzyme activity (ODC 20 µg/mL) [11]: 490 nM
- IC50,AZ: concentration of AZ required for 50% inhibition of ODC enzyme activity (ODC 20 µg/mL) [12]: 100 nM
- IC50,AZ: concentration of AZ required for 50% inhibition of ODC enzyme activity (ODC 20 µg/mL) [13]: 250 nM
- IC50,AZ: concentration of AZ required for 50% inhibition of ODC enzyme activity (ODC 20 µg/mL) [14]: 450 nM
- IC50,AZ: concentration of AZ required for 50% inhibition of ODC enzyme activity (ODC 20 µg/mL) [15]: 80 nM
- IC50,AZ: concentration of AZ required for 50% inhibition of ODC enzyme activity (ODC 20 µg/mL) [16]: 440 nM

Molecule: human antizyme inhibitor, wild type (from UniProt O14977 1-448) (natural protein)
- residual enzyme activity of AZ-inhibited ODC WT (AZ:ODC monomer ratio 4.0) with increasing AZI concentrations (human antizyme (human)): > 90%

B1: human ornithine decarboxylase, wild type (enzyme, UniProt P11926 1-461, looked up)
chain: MNNFGNEEFDCHFLDEGFTAKDILDQKINEVSSSDDKDAFYVADLGDILKKHLRWLKALPRVTPFYAVKCNDSKAIVKTLAATGTGFDCASKTEIQLVQSLGVPPERIIYANPCKQVSQIKYAANNGVQMMTFDSEVELMKVARAHPKAKLVLRIATDDSKAVCRLSVKFGATLRTSRLLLERAKELNIDVVGVSFHVGSGCTDPETFVQAISDARCVFDMGAEVGFSMYLLDIGGGFPGSEDVKLKFEEITGVINPALDKYFPSDSGVRIIAEPGRYYVASAFTLAVNIIAKKIVLKEQTGSDDEDESSEQTFMYYVNDGVYGSFNCILYDHAHVKPLLQKRPKPDEKYYSSSIWGPTCDGLDRIVERCDLPEMHVGDWMLFENMGAYTVAAASTFNGFQRPTIYYVMSGPAWQLMQQFQNPDFPPEVEEQDASTLPVSCAWESGMKRHRAACASASINV
notes: Ornithine decarboxylase (EC 4.1.1.17), human; Homodimer without AZ (S about 6); dissociates to form a heterodimer with AZ; Gene sub-cloned into pQE30; also called ODC; source: E. coli JM109, purified (Ni-NTA Sepharose)
- stoichiometry N [17]: 2
